Experimental data reported in patent publication US20240270874A1 (JIANGSU HENGRUI PHARMACEUTICALS, published 2024).

T1: human KLB on CHOK1-hKLB cells (human, UniProt Q86Z14 1-1044)
T1 construct: whole, on cells; also called human KLB antigen; β-Klotho
T1 sequence (looked up): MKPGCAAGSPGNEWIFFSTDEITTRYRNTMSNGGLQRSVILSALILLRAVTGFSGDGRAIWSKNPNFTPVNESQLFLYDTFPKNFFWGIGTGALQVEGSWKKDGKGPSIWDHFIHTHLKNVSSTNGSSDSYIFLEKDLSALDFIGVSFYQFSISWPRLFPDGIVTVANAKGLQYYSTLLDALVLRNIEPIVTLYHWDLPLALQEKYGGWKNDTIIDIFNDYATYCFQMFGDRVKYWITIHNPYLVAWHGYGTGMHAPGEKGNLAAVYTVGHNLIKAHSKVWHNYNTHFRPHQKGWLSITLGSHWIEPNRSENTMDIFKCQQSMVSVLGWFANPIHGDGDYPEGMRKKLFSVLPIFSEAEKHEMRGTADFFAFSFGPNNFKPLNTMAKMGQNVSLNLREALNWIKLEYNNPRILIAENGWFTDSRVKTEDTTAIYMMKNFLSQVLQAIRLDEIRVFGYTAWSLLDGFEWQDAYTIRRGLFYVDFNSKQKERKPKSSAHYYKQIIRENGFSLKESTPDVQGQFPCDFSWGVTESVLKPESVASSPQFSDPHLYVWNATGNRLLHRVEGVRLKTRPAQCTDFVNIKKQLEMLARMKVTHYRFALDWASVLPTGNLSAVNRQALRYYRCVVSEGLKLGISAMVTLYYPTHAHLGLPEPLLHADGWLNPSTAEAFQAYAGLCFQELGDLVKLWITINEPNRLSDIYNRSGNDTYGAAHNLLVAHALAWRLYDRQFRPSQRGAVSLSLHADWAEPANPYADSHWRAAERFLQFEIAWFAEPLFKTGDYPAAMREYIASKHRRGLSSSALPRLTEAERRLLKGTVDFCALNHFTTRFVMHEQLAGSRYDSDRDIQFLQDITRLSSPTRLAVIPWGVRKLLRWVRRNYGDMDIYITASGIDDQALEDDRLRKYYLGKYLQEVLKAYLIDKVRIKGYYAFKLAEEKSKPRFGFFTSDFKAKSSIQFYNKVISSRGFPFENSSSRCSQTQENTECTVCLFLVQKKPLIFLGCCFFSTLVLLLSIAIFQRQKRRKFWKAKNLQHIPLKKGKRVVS

B1: hAb18-5 (antibody, human IgG1, kappa, L234A L235A, V domains shown)
VH: EVQLVQSGAEVKKPGASVKVSCKGSGYTFTDYAMHWVRQAPGQRLEWIGVISTYSGTTNYNQNFKGRATVTVDKSASTAYMELSSLRSEDTAVYYCARSGPLDYWGQGTTVTVSS
VL: EIVLTQSPDFQSVTPKEKVTITCRASSSVSSSYLHWYQQKPDQSPKLWIYSTSNLASGVPSRFSGSGSGTDFTLTINSLEAEDAATYYCQQYSGYPLTFGQGTKLEIKR
notes: humanized mAb-18: hAb18VH3 + hAb18VL1; human IgG1 (L234A, L235A) / kappa constant regions
B2: hAb18-6 (antibody, human IgG1, kappa, L234A L235A, V domains shown)
VH: EVQLVQSGAEVKKPGASVKVSCKGSGYTFTDYAMHWVRQAPGQRLEWIGVISTYSGTTNYNQNFKGRATVTVDKSASTAYMELSSLRSEDTAVYYCARSGPLDYWGQGTTVTVSS
VL: ENVLTQSPDFQSVTPKEKVTITCRASSSVSSSYLHWYQQKPDQSPKLWIYSTSNLASGVPSRFSGSGSGTDYTLTINSLEAEDAATYYCQQYSGYPLTFGQGTKLEIKR
notes: humanized mAb-18: hAb18VH3 + hAb18VL2; human IgG1 (L234A, L235A) / kappa constant regions
B3: hAb18-7 (antibody, human IgG1, kappa, L234A L235A, V domains shown)
VH: EVQLVQSGAEVKKPGASVKVSCKASGYTFTDYAMHWVRQAPGQRLEWMGVISTYSGTTNYNQNFKGRVTITVDKSASTAYMELSSLRSEDTAVYYCARSGPLDYWGQGTTVTVSS
VL: ENVLTQSPDFQSVTPKEKVTITCRASSSVSSSYLHWYQQKPDQSPKLWIYSTSQLASGVPSRFSGSGSGTDYTLTINSLEAEDAATYYCQQYSGYPLTFGQGTKLEIKR
notes: humanized mAb-18: hAb18VH1 + hAb18VL2-1; human IgG1 (L234A, L235A) / kappa constant regions
B4: hAb18-9 (antibody, human IgG1, kappa, L234A L235A, V domains shown)
VH: EVQLVQSGAEVKKPGASVKVSCKASGYTFTDYAMHWVRQAPGQRLEWMGVISTYSGTTNYNQNFKGRVTITVDKSASTAYMELSSLRSEDTAVYYCARSGPLDYWGQGTTVTVSS
VL: ENVLTQSPDFQSVTPKEKVTITCRVSSSVSSSYLHWYQQKPDQSPKLWIYSTSQLASGVPSRFSGSGSGTDYTLTINSLEAEDAATYYCQQYSGYPLTFGQGTKLEIKR
notes: humanized mAb-18: hAb18VH1 + hAb18VL2-3; human IgG1 (L234A, L235A) / kappa constant regions
B5: hAb18-10 (antibody, human IgG1, kappa, L234A L235A, V domains shown)
VH: EVQLVQSGAEVKKPGASVKVSCKASGYTFTDYAMHWVRQAPGQRLEWMGVISTYSGTTNYNQNFKGRVTITVDKSASTAYMELSSLRSEDTAVYYCARSGPLDYWGQGTTVTVSS
VL: ENVLTQSPDFQSVTPKEKVTITCRASSSVSTSYLHWYQQKPDQSPKLWIYSTSQLASGVPSRFSGSGSGTDYTLTINSLEAEDAATYYCQQYSGYPLTFGQGTKLEIKR
notes: humanized mAb-18: hAb18VH1 + hAb18VL2-4; human IgG1 (L234A, L235A) / kappa constant regions
B6: hAb18-11 (antibody, human IgG1, kappa, L234A L235A, V domains shown)
VH: EVQLVQSGAEVKKPGASVKVSCKASGYTFTDYAMHWVRQAPGQRLEWMGVISTYSGTTNYNQNFKGRVTITVDKSASTAYMELSSLRSEDTAVYYCARSGPLDYWGQGTTVTVSS
VL: ENVLTQSPDFQSVTPKEKVTITCRASSSVTSSYLHWYQQKPDQSPKLWIYSTSQLASGVPSRFSGSGSGTDYTLTINSLEAEDAATYYCQQYSGYPLTFGQGTKLEIKR
notes: humanized mAb-18: hAb18VH1 + hAb18VL2-5; human IgG1 (L234A, L235A) / kappa constant regions
B7: hAb18-12 (antibody, human IgG1, kappa, L234A L235A, V domains shown)
VH: EVQLVQSGAEVKKPGASVKVSCKASGYTFTDYAMHWVRQAPGQRLEWMGVISTYSGTTNYNQNFKGRVTITVDKSASTAYMELSSLRSEDTAVYYCARSGPLDYWGQGTTVTVSS
VL: ENVLTQSPDFQSVTPKEKVTITCRASSSLSSSYLHWYQQKPDQSPKLWIYSTSQLASGVPSRFSGSGSGTDYTLTINSLEAEDAATYYCQQYSGYPLTFGQGTKLEIKR
notes: humanized mAb-18: hAb18VH1 + hAb18VL2-6; human IgG1 (L234A, L235A) / kappa constant regions
B8: hAb18-13 (antibody, human IgG1, kappa, L234A L235A, V domains shown)
VH: EVQLVQSGAEVKKPGASVKVSCKASGYTFTDYAMHWVRQAPGQRLEWMGVISTYSGTTNYNQNFKGRVTITVDKSASTAYMELSSLRSEDTAVYYCARSGPLDYWGQGTTVTVSS
VL: ENVLTQSPDFQSVTPKEKVTITCRASSNVSSSYLHWYQQKPDQSPKLWIYSTSQLASGVPSRFSGSGSGTDYTLTINSLEAEDAATYYCQQYSGYPLTFGQGTKLEIKR
notes: humanized mAb-18: hAb18VH1 + hAb18VL2-7; human IgG1 (L234A, L235A) / kappa constant regions
B9: hAb18-14 (antibody, human IgG1, kappa, L234A L235A, V domains shown)
VH: EVQLVQSGAEVKKPGASVKVSCKASGYTFTDYAMHWVRQAPGQRLEWMGVISTYSGTTNYNQNFKGRVTITVDKSASTAYMELSSLRSEDTAVYYCARSGPLDYWGQGTTVTVSS
VL: ENVLTQSPDFQSVTPKEKVTITCRATSSVSSSYLHWYQQKPDQSPKLWIYSTSNLASGVPSRFSGSGSGTDYTLTINSLEAEDAATYYCQQYSGYPLTFGQGTKLEIKR
notes: humanized mAb-18: hAb18VH1 + hAb18VL2-8; human IgG1 (L234A, L235A) / kappa constant regions

molecular target: T1, human KLB on CHOK1-hKLB cells; test: flow cytometry on CHOK1-hKLB cells
Source text: The above heavy chain variable regions were fused to the heavy chain constant region (set forth in SEQ ID NO: 22) and the light chain variable regions were fused to the light chain constant region (set forth in SEQ ID NO: 23) to construct anti-KLB antibodies, and the binding activity of the obtained antibodies for CHOK1-hKLB was detected (see Test Example 2 of the present disclosure for the experimental method).
The binding ability of the antibodies for CHOK1 cell strains CHOK1-hKLB and CHOK1-cynoKLB overexpressing human KLB and monkey KLB (see Example 1 for specific preparation procedure), respectively, was detected by flow cytometry. The specific procedure was as follows: the above cells were cultured in 10% FBS-containing IMDM medium and incubated in an incubator at 37° C. and 5% CO₂ for 2 days. The cells were then added to a cell plate at 1×10⁵ cells per well, centrifuged at 300 g for 5 min, and then washed once with 1% BSA. The antibody diluted in gradient was added to the cell plate at 100 μL per well, and the mixture was incubated at 4° C. for 1 h and washed once with 1% BSA. The diluted (1:400) APC-goat anti-human IgG Fc fluorescent secondary antibody was added at 100 μL per well, and the resulting mixture was incubated at 4° C. for 1 h. The plate was washed three times with 1% BSA, PBS was added at 100 μL per well, and the plate was read.

B1 and B2 are within 1.5-fold of each other in EC50: 1.8 nM for the first, 2 nM for the second.

B3 and B4 are the same in EC50: 2.4 nM for the first, 2.4 nM for the second.

B5 and B6 are the same in EC50: 2.7 nM for the first, 2.7 nM for the second.

First: B7
Second: B8
The EC50 of the first is 2.8-fold lower: 1.9 nM for the first, 5.4 nM for the second. The first is the more potent here.

Work on B9 yielded an EC50 of 1.6 nM.
